Values of other authors in article PMC2947981.
Where “and” joins values, the source holds several entries; their conditions need not be identical. Equal entries are not always repeated. Where two headings read alike, the source gives them in different places.

Experiments:
[1] = biological target: Factor VIIIa2 A2 (Homo sapiens) (UniProt P00451)
[2] = biological target: Thrombin (IIa) (Homo sapiens) (UniProt P00734)
[3] = biological target: Factor VIIIa A2 A2 (Homo sapiens) (UniProt P00451)
TFPI (Homo sapiens) [4] = biological target: TFPI (Homo sapiens) (UniProt P10646)
UniProt P10646, sequence (P10646 29-304): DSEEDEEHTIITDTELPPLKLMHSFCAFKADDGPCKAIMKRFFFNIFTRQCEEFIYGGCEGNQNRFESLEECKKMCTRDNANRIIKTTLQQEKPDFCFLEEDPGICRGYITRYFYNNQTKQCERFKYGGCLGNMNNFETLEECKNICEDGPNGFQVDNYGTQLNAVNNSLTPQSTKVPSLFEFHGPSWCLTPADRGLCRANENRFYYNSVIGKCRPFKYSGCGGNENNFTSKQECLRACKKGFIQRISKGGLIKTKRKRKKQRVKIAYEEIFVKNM

Factor Va (Homo sapiens) [5] = biological target: Factor Va (Homo sapiens) (UniProt P12259)
UniProt P12259, sequence (P12259 29-737, chain 1 of 2): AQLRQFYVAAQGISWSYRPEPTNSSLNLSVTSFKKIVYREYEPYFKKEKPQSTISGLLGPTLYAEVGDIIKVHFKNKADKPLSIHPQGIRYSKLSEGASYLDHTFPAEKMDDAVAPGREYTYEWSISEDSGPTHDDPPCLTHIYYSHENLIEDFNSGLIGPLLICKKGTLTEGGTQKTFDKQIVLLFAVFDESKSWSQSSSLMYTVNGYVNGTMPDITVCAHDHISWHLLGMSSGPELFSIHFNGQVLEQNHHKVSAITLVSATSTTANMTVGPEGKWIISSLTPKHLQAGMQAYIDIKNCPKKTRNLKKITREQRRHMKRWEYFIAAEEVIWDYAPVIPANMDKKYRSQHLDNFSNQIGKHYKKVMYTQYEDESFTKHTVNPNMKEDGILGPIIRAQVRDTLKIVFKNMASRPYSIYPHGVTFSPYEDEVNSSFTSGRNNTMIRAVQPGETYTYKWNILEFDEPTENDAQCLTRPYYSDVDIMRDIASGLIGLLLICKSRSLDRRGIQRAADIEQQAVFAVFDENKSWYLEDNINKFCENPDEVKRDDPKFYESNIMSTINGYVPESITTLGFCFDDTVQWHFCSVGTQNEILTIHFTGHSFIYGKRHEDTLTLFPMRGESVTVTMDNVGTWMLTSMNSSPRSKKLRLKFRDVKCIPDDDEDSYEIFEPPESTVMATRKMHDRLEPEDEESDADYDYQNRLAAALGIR
UniProt P12259, sequence (P12259 1574-2224, chain 2 of 2): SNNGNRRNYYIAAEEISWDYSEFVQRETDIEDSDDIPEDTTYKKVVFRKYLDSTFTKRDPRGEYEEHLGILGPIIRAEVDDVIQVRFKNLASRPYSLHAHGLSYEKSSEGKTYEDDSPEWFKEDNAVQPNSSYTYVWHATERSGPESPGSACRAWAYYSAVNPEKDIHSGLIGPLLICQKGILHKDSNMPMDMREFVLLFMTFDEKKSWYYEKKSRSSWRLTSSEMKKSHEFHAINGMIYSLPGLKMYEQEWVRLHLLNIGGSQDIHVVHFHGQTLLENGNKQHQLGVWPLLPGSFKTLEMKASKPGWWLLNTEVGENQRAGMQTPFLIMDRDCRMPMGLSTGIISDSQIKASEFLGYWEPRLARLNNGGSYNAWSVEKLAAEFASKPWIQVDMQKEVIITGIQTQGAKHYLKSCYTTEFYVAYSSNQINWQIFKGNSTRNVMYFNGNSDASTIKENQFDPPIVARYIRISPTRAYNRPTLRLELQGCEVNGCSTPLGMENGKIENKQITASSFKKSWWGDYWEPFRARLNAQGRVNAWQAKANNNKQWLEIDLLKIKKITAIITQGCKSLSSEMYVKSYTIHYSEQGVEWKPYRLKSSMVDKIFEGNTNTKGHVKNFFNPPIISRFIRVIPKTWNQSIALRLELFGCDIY

TFPI (Homo sapiens) [6] = biological target: TFPI (Homo sapiens) (UniProt P10646); remark: listed apart in the source
Factor Va (Homo sapiens) [7] = biological target: Factor Va (Homo sapiens) (UniProt P12259); remark: listed apart in the source
TFPI (Homo sapiens) [8] = biological target: TFPI (Homo sapiens) (UniProt P10646); remark: listed apart in the source
TFPI (Homo sapiens) [9] = biological target: TFPI (Homo sapiens) (UniProt P10646); remark: listed apart in the source
[10] = biological target: Corn trypsin inhibitor (CTI) (Zea mays) (UniProt P01088)
UniProt P01088, sequence (P01088 29-138): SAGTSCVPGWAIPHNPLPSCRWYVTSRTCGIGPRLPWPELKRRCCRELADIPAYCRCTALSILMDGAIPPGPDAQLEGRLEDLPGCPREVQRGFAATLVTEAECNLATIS

[11] = biological target: Factor VIIa (Homo sapiens) (UniProt P08709)
UniProt P08709, sequence (P08709 61-212, chain 1 of 2): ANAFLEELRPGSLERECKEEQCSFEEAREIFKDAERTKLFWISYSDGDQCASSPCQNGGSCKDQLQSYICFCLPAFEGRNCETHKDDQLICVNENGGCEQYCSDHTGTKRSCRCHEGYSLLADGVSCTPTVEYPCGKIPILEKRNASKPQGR
UniProt P08709, sequence (P08709 213-466, chain 2 of 2): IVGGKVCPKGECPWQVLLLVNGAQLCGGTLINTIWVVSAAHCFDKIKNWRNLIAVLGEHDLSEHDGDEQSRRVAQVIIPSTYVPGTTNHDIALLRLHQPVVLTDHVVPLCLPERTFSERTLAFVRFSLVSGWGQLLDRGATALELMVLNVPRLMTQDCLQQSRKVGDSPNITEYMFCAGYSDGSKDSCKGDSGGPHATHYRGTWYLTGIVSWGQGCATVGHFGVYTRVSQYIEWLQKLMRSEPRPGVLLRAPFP

[12] = biological target: Factor IXa (Homo sapiens) (UniProt P00740)
[13] = biological target: Factor IXa (Homo sapiens) (UniProt P00740); remark: listed apart in the source
[14] = biological target: Factor IXa (Homo sapiens) (UniProt P00740); remark: listed apart in the source
[15] = biological target: Factor VIIIa (Homo sapiens) (UniProt P00451)
[16] = biological target: Factor VIIIa (Homo sapiens) (UniProt P00451); remark: listed apart in the source
[17] = biological target: Factor VIIIa (Homo sapiens) (UniProt P00451); remark: listed apart in the source
[18] = biological target: Factor VIIIa (Homo sapiens) (UniProt P00451); remark: listed apart in the source
Factor Xa (Homo sapiens) = Factor Xa (Homo sapiens) (UniProt P00742)

Factor VIIIa, sequence (P00451 1668-2351): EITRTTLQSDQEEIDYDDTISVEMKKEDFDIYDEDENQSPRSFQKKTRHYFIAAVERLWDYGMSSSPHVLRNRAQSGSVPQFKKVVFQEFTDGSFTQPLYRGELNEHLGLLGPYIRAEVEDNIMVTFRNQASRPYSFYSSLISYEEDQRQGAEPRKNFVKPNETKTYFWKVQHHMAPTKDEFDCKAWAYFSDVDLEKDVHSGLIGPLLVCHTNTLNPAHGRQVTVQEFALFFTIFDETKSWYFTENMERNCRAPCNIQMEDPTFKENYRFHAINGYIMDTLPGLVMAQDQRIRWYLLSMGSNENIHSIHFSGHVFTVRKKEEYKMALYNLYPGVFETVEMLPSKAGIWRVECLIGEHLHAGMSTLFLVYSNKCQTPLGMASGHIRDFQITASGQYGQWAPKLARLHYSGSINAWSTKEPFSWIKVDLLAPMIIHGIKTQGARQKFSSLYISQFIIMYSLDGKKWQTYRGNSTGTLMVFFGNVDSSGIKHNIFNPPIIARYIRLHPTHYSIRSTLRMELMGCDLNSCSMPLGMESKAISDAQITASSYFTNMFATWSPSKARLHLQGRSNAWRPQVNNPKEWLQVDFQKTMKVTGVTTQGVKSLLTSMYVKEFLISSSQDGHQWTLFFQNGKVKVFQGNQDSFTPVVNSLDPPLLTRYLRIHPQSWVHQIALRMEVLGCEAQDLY

In the case of “Factor VIIIa1-L A1-L (from UniProt P00451)”, the Kd [1] is given as 270 nM.

In the case of Fibrin II (Fbn2) (from UniProt P02671), the Kd [2] is listed as 10000 nM.

In the case of “Factor VIIIa A1/A3-C1-C2 A1/A3-C1-C2 (from UniProt P00451)”, the Kd [3] is listed as 260 nM.

In the case of Factor Xa (from UniProt P00742), the Ki (TFPI (Homo sapiens) [4]) is listed as 0.0852 nM, the Kd (Factor Va (Homo sapiens) [5]) is listed as 0.03 nM and the Kd (TFPI (Homo sapiens) [6]) is listed as 0.4 nM. The Kd (Factor Va (Homo sapiens) [7]) was 3.3 nM and 0.5 nM and the Ki (TFPI (Homo sapiens) [8]) was 0.0652 nM.

In the case of “TF-VIIa-Xa complex (from UniProt P13726)”, the Kd (TFPI (Homo sapiens) [9]) is listed as 0.00034 nM.

For Factor XIIa (from UniProt P00748), the Ki [10] is listed as 24 nM.

For GP1bα (from UniProt P07359), the Kd [11] is given as 20 nM.

For Factor VIIIa (from UniProt P00451), the Kd [12] is given as 0.55 nM, the Kd [13] is given as 4 nM and the Kd [14] is given as 0.074 nM.

For Factor IXa (from UniProt P00740), the Kd [15] is given as 0.55 nM, the Kd [16] is given as 351 nM and the Kd [17] is given as 0.074 nM. The Kd [18] was 4 nM.

For TF-VIIa complex (from UniProt P13726), the Kd (Factor Xa (Homo sapiens)) is listed as 860 nM.
